Among the data in PMC3060061 are fold increase of the binding affinity against wild type LCMT-1 values, retold here.

For this assay, the target named is PP2A core enzyme (A–C core dimer) (human) (UniProt P30153). As to the kind of experiment: ITC. For orientation: In ITC the heat of successive injections is recorded.
Sequence of UniProt P30153 (P30153 whole entry, chain 1 of 2): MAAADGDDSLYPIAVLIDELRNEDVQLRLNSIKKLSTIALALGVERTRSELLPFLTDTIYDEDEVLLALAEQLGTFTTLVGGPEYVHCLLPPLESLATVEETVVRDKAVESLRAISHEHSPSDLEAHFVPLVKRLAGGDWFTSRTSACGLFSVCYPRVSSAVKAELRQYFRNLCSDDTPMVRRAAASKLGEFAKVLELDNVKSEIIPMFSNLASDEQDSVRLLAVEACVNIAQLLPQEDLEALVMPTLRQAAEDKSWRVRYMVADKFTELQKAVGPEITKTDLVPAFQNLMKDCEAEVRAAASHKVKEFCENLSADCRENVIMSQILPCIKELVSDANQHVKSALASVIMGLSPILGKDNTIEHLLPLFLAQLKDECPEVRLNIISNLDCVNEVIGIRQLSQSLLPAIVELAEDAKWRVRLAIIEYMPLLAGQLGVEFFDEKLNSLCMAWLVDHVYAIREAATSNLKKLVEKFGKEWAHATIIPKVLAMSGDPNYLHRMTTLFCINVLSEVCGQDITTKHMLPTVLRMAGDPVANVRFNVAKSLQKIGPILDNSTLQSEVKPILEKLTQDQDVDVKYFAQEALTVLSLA
Sequence of UniProt P30153 (P67775 whole entry, chain 2 of 2, further chain): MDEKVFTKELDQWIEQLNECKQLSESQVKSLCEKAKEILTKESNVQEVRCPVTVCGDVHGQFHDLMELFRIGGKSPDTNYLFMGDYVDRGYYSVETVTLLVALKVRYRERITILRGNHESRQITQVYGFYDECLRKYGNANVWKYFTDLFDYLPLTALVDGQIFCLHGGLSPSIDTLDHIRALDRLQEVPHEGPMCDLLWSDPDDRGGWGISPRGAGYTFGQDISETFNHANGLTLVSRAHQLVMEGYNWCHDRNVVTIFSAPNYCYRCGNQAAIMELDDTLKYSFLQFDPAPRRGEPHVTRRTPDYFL

LCMT-1 T29V (enzyme) had a fold increase of the binding affinity against wild type LCMT-1 of 4 fold.
